In patent US20140322307A1 (LIPOTEC S A, published 2014):

T1: Proteinase-Activated Receptor-2 (human, on human keratinocytes) (human, UniProt P55085 37-397)
T1 sequence (looked up): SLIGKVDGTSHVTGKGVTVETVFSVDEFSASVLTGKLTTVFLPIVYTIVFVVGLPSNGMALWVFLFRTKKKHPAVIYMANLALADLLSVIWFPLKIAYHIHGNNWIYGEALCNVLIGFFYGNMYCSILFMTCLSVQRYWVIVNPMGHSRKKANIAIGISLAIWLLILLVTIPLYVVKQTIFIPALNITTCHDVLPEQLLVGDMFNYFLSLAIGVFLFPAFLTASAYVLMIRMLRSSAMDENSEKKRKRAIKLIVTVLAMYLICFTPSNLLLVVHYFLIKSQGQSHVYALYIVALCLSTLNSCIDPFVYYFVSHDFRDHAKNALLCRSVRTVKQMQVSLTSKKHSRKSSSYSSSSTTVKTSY


Target: T1, Proteinase-Activated Receptor-2 (human, …)
Assay: cell-based or functional assay

| Binder | Inhibition PAR-2 activity (calcium fluorescence, human keratinocytes, peptide at 1 mg/mL) | PAR-2 activity (calcium fluorescence, human keratinocytes, peptide at 1 mg/mL) |
| --- | --- | --- |
| Ac-FFRFIV-NH2 [Ac-L-Phe-L-Phe-L-Arg-L-Phe-L-Ile-L-Val-NH2] | 53.7% | 46.3% |
| Ac-FMRFHV-NH2 [Ac-L-Phe-L-Met-L-Arg-L-Phe-L-His-L-Val-NH2] | 40% | 60% |
| Ac-FFRDIV-NH2 [Ac-L-Phe-L-Phe-L-Arg-L-Asp-L-Ile-L-Val-NH2] | 39% | 61% |
| Ac-SMQFHV-NH2 [Ac-L-Ser-L-Met-L-Gln-L-Phe-L-His-L-Val-NH2] | 15.1% | 84.9% |
| Ac-SMWFHS-NH2 [Ac-L-Ser-L-Met-L-Trp-L-Phe-L-His-L-Ser-NH2] | 64.9% | 35.1% |
| Ac-FFWDIS-NH2 [Ac-L-Phe-L-Phe-L-Trp-L-Asp-L-Ile-L-Ser-NH2] | 38.4% | 61.6% |
| Ac-FMRDHS-NH2 [Ac-L-Phe-L-Met-L-Arg-L-Asp-L-His-L-Ser-NH2] | 66.9% | 33.1% |
| Ac-FFWDHV-NH2 [Ac-L-Phe-L-Phe-L-Trp-L-Asp-L-His-L-Val-NH2] | 14.8% | 85.2% |
| Ac-FMQFHS-NH2 [Ac-L-Phe-L-Met-L-Gln-L-Phe-L-His-L-Ser-NH2] | 23% | 77% |
| Ac-SMQFIS-NH2 [Ac-L-Ser-L-Met-L-Gln-L-Phe-L-Ile-L-Ser-NH2] | 52.6% | 47.4% |
| Ac-FMWFHS-NH2 [Ac-L-Phe-L-Met-L-Trp-L-Phe-L-His-L-Ser-NH2] | 72.2% | 27.8% |
| Ac-FFQDIV-NH2 [Ac-L-Phe-L-Phe-L-Gln-L-Asp-L-Ile-L-Val-NH2] | 35.9% | 64.1% |
| Ac-FFRFHV-NH2 [Ac-L-Phe-L-Phe-L-Arg-L-Phe-L-His-L-Val-NH2] | 23.4% | 76.6% |
| Ac-FFQFIS-NH2 [Ac-L-Phe-L-Phe-L-Gln-L-Phe-L-Ile-L-Ser-NH2] | 59.3% | 40.7% |
| Ac-FMWFIS-NH2 [Ac-L-Phe-L-Met-L-Trp-L-Phe-L-Ile-L-Ser-NH2] | 67.7% | 32.3% |
| Ac-FMWDIS-NH2 [Ac-L-Phe-L-Met-L-Trp-L-Asp-L-Ile-L-Ser-NH2] | 26.5% | 73.5% |
| Ac-SFWFHS-NH2 [Ac-L-Ser-L-Phe-L-Trp-L-Phe-L-His-L-Ser-NH2] | 26.4% | 73.6% |
| Ac-FMRFIV-NH2 [Ac-L-Phe-L-Met-L-Arg-L-Phe-L-Ile-L-Val-NH2] | 40.9% | 59.1% |
| Ac-FFRDHV-NH2 [Ac-L-Phe-L-Phe-L-Arg-L-Asp-L-His-L-Val-NH2] | 60.3% | 39.7% |

| Binder | Inhibition PAR-2 activity (calcium fluorescence, human keratinocytes, peptide at 1 mg/mL) | PAR-2 activity (calcium fluorescence, human keratinocytes, peptide at 1 mg/mL) |
| --- | --- | --- |
| Ac-SMWFHV-NH2 [Ac-L-Ser-L-Met-L-Trp-L-Phe-L-His-L-Val-NH2] | 13.5% | 86.5% |
| Ac-SMRFIV-NH2 [Ac-L-Ser-L-Met-L-Arg-L-Phe-L-Ile-L-Val-NH2] | 75.2% | 24.8% |
| Ac-SFQFHS-NH2 [Ac-L-Ser-L-Phe-L-Gln-L-Phe-L-His-L-Ser-NH2] | 9.9% | 90.1% |
| Ac-FFQFHV-NH2 [Ac-L-Phe-L-Phe-L-Gln-L-Phe-L-His-L-Val-NH2] | 19.9% | 80.1% |
| Ac-SFRFIS-NH2 [Ac-L-Ser-L-Phe-L-Arg-L-Phe-L-Ile-L-Ser-NH2] | 16.2% | 83.8% |
| Ac-FMWDIV-NH2 [Ac-L-Phe-L-Met-L-Trp-L-Asp-L-Ile-L-Val-NH2] | 86.1% | 13.9% |
| Ac-FFWFHS-NH2 [Ac-L-Phe-L-Phe-L-Trp-L-Phe-L-His-L-Ser-NH2] | 49.2% | 50.8% |
| Ac-SFQFIS-NH2 [Ac-L-Ser-L-Phe-L-Gln-L-Phe-L-Ile-L-Ser-NH2] | 39% | 61% |
| Ac-FFWFIS-NH2 [Ac-L-Phe-L-Phe-L-Trp-L-Phe-L-Ile-L-Ser-NH2] | 66.3% | 33.7% |
| Ac-FFQFHS-NH2 [Ac-L-Phe-L-Phe-L-Gln-L-Phe-L-His-L-Ser-NH2] | 37.4% | 62.6% |
| Ac-FMQFHV-NH2 [Ac-L-Phe-L-Met-L-Gln-L-Phe-L-His-L-Val-NH2] | 22.6% | 77.5% |
| Ac-FFQDIS-NH2 [Ac-L-Phe-L-Phe-L-Gln-L-Asp-L-Ile-L-Ser-NH2] | 27% | 73% |
| Ac-FMRFIS-NH2 [Ac-L-Phe-L-Met-L-Arg-L-Phe-L-Ile-L-Ser-NH2] | 35.1% | 64.9% |
| Ac-SFRFIV-NH2 [Ac-L-Ser-L-Phe-L-Arg-L-Phe-L-Ile-L-Val-NH2] | 58.9% | 41.1% |
| Ac-FMQDIV-NH2 [Ac-L-Phe-L-Met-L-Gln-L-Asp-L-Ile-L-Val-NH2] | 9.7% | 90.3% |
| Ac-FMQFIS-NH2 [Ac-L-Phe-L-Met-L-Gln-L-Phe-L-Ile-L-Ser-NH2] | 89.1% | 10.9% |
| Ac-SFWFHV-NH2 [Ac-L-Ser-L-Phe-L-Trp-L-Phe-L-His-L-Val-NH2] | 58.3% | 41.7% |
| Ac-SMWFIS-NH2 [Ac-L-Ser-L-Met-L-Trp-L-Phe-L-Ile-L-Ser-NH2] | 67.8% | 32.2% |
| Ac-SFWFIS-NH2 [Ac-L-Ser-L-Phe-L-Trp-L-Phe-L-Ile-L-Ser-NH2] | 39.2% | 60.8% |
